Biological target: T cell receptor gamma variable 9 (TRGV9) on human γδ T cells (human) (UniProt Q99603)
Assay: γδ T-cell binding (γδ-enriched T cells), readout 'Signal'

EC50: 560 pM
B1: VG9B2, chimera human IgG1 mAb (silent Fc) of mouse anti-human TCR Vγ9 clone B3 (antibody, V domains shown)
VH: QGQMQQSGAELVKPGASVKLSCKTSGFTFSSNYISWLKQKPGQSLEWIAWIHGGTGGIGYNQKFTGKAQLTVDTSSTTAYMQFSSLTTEDSAIYYCARRGYGAWFAYWGQGTLVTVSA
VL: DIQMTQSPASLSASVGETVTITCRASENIHNYLAWYQQKQGKSPQLLVYNAKTLADGVPSRFSGSGSGTQYSLKINSLQPEDFGNYYCQHFWSYPLTFGAGTKLELK

From US20220306739A1
